# Reference: patent publication US6730779B2, “Antibody that specifically binds an Mch4 polypeptide” (IDUN Pharmaceuticals, Inc., priority 1996, dated 2004)
# T1: CPP32 (Homo sapiens, UniProt P42574)
# T1 sequence (P42574 29-175 limits assumed): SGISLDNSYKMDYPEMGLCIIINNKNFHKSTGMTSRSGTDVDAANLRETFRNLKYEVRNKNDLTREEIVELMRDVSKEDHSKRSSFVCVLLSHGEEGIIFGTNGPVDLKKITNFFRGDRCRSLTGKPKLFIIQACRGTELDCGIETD
# T1 sequence (P42574 176-277 limits assumed): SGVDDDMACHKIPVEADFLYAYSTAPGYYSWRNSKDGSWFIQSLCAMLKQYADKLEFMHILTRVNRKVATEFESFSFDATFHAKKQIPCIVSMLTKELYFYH
# T2: Mch4 (Homo sapiens, UniProt Q92851)
# T2 sequence (Q92851 194-372 isoform Q92851-2): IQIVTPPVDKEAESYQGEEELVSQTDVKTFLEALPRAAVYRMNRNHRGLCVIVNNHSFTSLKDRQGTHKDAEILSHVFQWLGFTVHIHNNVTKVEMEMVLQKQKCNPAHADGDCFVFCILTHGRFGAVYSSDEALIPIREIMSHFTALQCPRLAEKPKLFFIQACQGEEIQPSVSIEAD
# T2 sequence (Q92851 373-479 isoform Q92851-2): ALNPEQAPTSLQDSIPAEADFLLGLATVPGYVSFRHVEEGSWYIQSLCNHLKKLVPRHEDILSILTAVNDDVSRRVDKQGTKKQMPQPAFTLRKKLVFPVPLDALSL
# B1: proMch4: full length proMch4 (SEQ ID NO:2) expressed in Sf9 cells by recombinant baculovirus (protein)
# chain: MKSQGQHWYSSSDKNCKVSFREKLLIIDSNLGVQDVENLKFLCIGLVPNKKLEKSSSASDVFEHLLAEDLLSEEDPFFLAELLYIIRQKKLLQHLNCTKEEVERLLPTRQRVSLFRNLLYELSEGIDSENLKDMIFLLKDSLPKTEMTSLSFLAFLEKQGKIDEDNLTCLEDLCKTVVPKLLRNIEKYKREKAIQIVTPPVDKEAESYQGEEELVSQTDVKTFLEALPRAAVYRMNRNHRGLCVIVNNHSFTSLKDRQGTHKDAEILSHVFQWLGFTVHIHNNVTKVEMEMVLQKQKCNPAHADGDCFVFCILTHGRFGAVYSSDEALIPIREIMSHFTALQCPRLAEKPKLFFIQACQGEEIQPSVSIEADALNPEQAPTSLQDSIPAEADFLLGLATVPGYVSFRHVEEGSWYIQSLCNHLKKLVPRHEDILSILTAVNDDVSRRVDKQGTKKQMPQPAFTLRKKLVFPVPLDALSI
# Tests used:
# CPP32 [1] = molecular target: T1, CPP32; details: cited from earlier work
# Mch4 = molecular target: T2, Mch4; assay: Continuous fluorometric assay of recombinant Mch4 protease activity (kinetic parameters); details: for Km: tetrapeptide substrate, bacterially expressed GST-Mch4, ICE buffer pH 7.5, room temperature
# Description: The kinetic properties of bacterially expressed recombinant Mch4 were determined using the tetrapeptide substrates DEVD-AMC and YVAD-AMC in a continuous fluorometric assay (Table I). […] After induction with IPTG, bacterial extracts were prepared from E. coli expressing the recombinant fusion proteins. The extracts were adsorbed to glutathione-Sepharose resin, washed several times and then analyzed by SDS-PAGE.
# The purified Mch4 GST-fusion protein was then used for further enzymatic analyses. The activity of Mch4 was measured using bacterial lysates prepared with ICE buffer (25 mM HEPES, 1 mM EDTA, 5 mM DTT, 0.1% CHAPS, 10% sucrose, pH 7.5) at room temperature (24-25° C.).
# [2] = tested on: MCF7 human breast carcinoma cell line; assay: Apoptosis of MCF7 cells after transfection with Mch5B expression vector; details: 36 hours after transfection, control plasmid pcDNA3 about 50%
# CPP32 [3] = molecular target: T1, CPP32; assay: Kinetic comparison of CPP32 with tetrapeptide substrates; details: CPP32 versus Mch4
# Sf9 cells = assay: Induction of apoptosis in Sf9 cells by recombinant baculovirus expression; type: cell-based; details: about 48 h postinfection
# Excerpt: Briefly, Sf9 cells were infected with recombinant baculoviruses encoding full length proMch4 or full length CPP32 as a standard (Fernandes-Alnemri et al., J. Biol. Chem. 269:30761-30764 (1994)). Cells were then examined microscopically for morphological signs of apoptosis such as blebbing of the cytoplasmic membrane, condensation of nuclear chromatin and release of small apoptotic bodies. In addition the genomic DNA was examined for internucleosomal DNA cleavage.
# For the construction of transfer vectors and recombinant baculoviruses, the full length proMch4 in pBluescript KS+ was excised with Bam HI and EcoRI and subcloned into a Bam HI/EcoRI cut pVL1393 vector (Invitrogen, San Diego, Calif.) to generate the pVL-proMch4 transfer vector. The pVL-CPP32 transfer vector was made as described previously (Fernandes-Alnemri et al., supra (1994)). […]
# For-the induction of apoptosis in Sf9 cells by proMch4 and CPP32 cells were infected with recombinant baculoviruses AcNPV-proMch4 or AcNPV-CPP32. Apoptosis was measured microscopically by counting cells with the appropriate morphology (blebbing, nuclear condensation). Alternatively, internucleosomal DNA cleavage is assessed as a characteristic marker. […] The DNA samples were analyzed by electrophoresis in a 1.8% agarose gel containing ethidium bromide.
molecule,measurement,setting,value
YVAD-AMC: tetrapeptide substrate representing the IL-1β cleavage site,KM for YVAD-AMC relative to KM for DEVD-AMC,CPP32 [1],> 35 fold
same,Km,Mch4,150 µM
CC(=O)N[C@@H](CC(=O)O)C(=O)N[C@@H](CCC(=O)O)C(=O)N[C@H](C(=O)N[C@H](C=O)CC(=O)O)C(C)C [DEVD-CHO],Ki,Mch4,14 nM
"Mch5B: FADD-like domain B of proMch5 (amino acid 128-205), expressed from pcDNA3 vector in MCF7 cells",percentage of transfected cells that were apoptotic,[2],about 80%
DEVD-AMC: fluorescent tetrapeptide substrate representing the PARP cleavage site,specificity of CPP32 for the substrate compared to Mch4 (ratio of Vmax/Km),CPP32 [3],> 500 fold
same,Km,Mch4,130 µM
B1,"induction of apoptosis (morphology, internucleosomal DNA cleavage)",Sf9 cells,caused a significant percentage of the cells to undergo apoptosis
